From publication PMC9440017, “Structural basis for Gemin5 decamer-mediated mRNA binding” (Nature Communications, 2022)
Values joined by “and” are separate entries in the source; they are usually repeats but may differ in a detail not shown here. Equal values may be shown once.

What was measured:
[1] = target: G5C (Gemin5 841-1508) wild type (Homo sapiens) (UniProt Q8TEQ6); assay: fluorescence polarization; conditions: EMSA: 20 mM Tris-HCl pH 7.5, 100 mM NaCl, 1 h on ice, 0.35 uM RNA; FP: 20 mM Tris-HCl pH 7.5, 150 mM NaCl, 10 nM RNA (40 nM U7), protein 0-41 uM, temperature …
G5C A951E (Homo sapiens) = assay: fluorescence polarization; conditions: EMSA: 20 mM Tris-HCl pH 7.5, 100 mM NaCl, 1 h on ice, 0.35 uM RNA; FP: 20 mM Tris-HCl pH 7.5, 150 mM NaCl, 10 nM RNA (40 nM U7), protein 0-41 uM, temperature …
G5C M4 (Homo sapiens) = assay: fluorescence polarization; conditions: EMSA: 20 mM Tris-HCl pH 7.5, 100 mM NaCl, 1 h on ice, 0.35 uM RNA; FP: 20 mM Tris-HCl pH 7.5, 150 mM NaCl, 10 nM RNA (40 nM U7), protein 0-41 uM, temperature …
[2] = target: the molecule itself; assay: SEC; size-exclusion chromatography of purified G5C wild type and mutants against a molecular weight marker; self-association
[3] = target: the molecule itself; assay: SEC-MALS; Superose 6 Increase 10/300 GL coupled to DAWN HELEOS 8+; 100 ul at 1 mg/ml; 20 mM Tris-HCl pH 7.5, 330 mM NaCl; self-association

With SL1 RNA, FAM (FP) the Kd [1] was 6.5 µM, the Kd (G5C A951E (Homo sapiens)) was 32 µM and the Kd (G5C M4 (Homo sapiens)) was 138 µM.

B1: G5C K1363A/K1436A/R1437A/R1444A/K1492A mutant (domain or fragment, human, UniProt Q8TEQ6 841-1508, looked up)
chain: KKRKARSLLPLSTSLDHRSKEELHQDCLVLATAKHSRELNEDVSADVEERFHLGLFTDRATLYRMIDIEGKGHLENGHPELFHQLMLWKGDLKGVLQTAAERGELTDNLVAMAPAAGYHVWLWAVEAFAKQLCFQDQYVKAASHLLSIHKVYEAVELLKSNHFYREAIAIAKARLRPEDPVLKDLYLSWGTVLERDGHYAVAAKCYLGATCAYDAAKVLAKKGDAASLRTAAELAAIVGEDELSASLALRCAQELLLANNWVGAQEALQLHESLQGQRLVFCLLELLSRHLEEKQLSEGKSSSSYHTWNTGTEGPFVERVTAVWKSIFSLDTPEQYQEAFQKLQNIKYPSATNNTPAKQLLLHICHDLTLAVLSQQMASWDEAVQALLRAVVRSYDSGSFTIMQEVYSAFLPDGCDHLRDKLGDHQSPATPAFKSLEAFFLYGRLYEFWWSLSRPCPNSSVWVRAGHRTLSVEPSQQLDTASTEETDPETSQPEPNRPSELDLRLTEEGERMLSTFKELFSEAHASLQNSQRTVAEVQETLAEMIRQHQKSQLCKSTANGPDKNEPEVEAEQPLCSSQSQCKEEKNEPLSLPELTAALTEANQAMAKFPESIKAWPFPDVLECCLVLLLIRSHFPGCLAQEMQQQAQELLQAYGNTKTYRRHCQTFCM
notes: Gemin5, human, residues 841-1508 with K1363A, K1436A, R1437A, R1444A and K1492A; also called M5; source: E. coli BL21 (DE3), purified in the same way as wild-type G5C; not shown: His6, N-terminal, cleaved; copies: 10
With B1 the “stoichiometry N” value [2] was 10.

B2: G5C R1035A/K1061A/K1062A/R1090A quadruple mutant (domain or fragment, human, UniProt Q8TEQ6 841-1508, looked up)
chain: KKRKARSLLPLSTSLDHRSKEELHQDCLVLATAKHSRELNEDVSADVEERFHLGLFTDRATLYRMIDIEGKGHLENGHPELFHQLMLWKGDLKGVLQTAAERGELTDNLVAMAPAAGYHVWLWAVEAFAKQLCFQDQYVKAASHLLSIHKVYEAVELLKSNHFYREAIAIAKARLRPEDPVLKDLYLSWGTVLEADGHYAVAAKCYLGATCAYDAAKVLAAAGDAASLRTAAELAAIVGEDELSASLALACAQELLLANNWVGAQEALQLHESLQGQRLVFCLLELLSRHLEEKQLSEGKSSSSYHTWNTGTEGPFVERVTAVWKSIFSLDTPEQYQEAFQKLQNIKYPSATNNTPAKQLLLHICHDLTLAVLSQQMASWDEAVQALLRAVVRSYDSGSFTIMQEVYSAFLPDGCDHLRDKLGDHQSPATPAFKSLEAFFLYGRLYEFWWSLSRPCPNSSVWVRAGHRTLSVEPSQQLDTASTEETDPETSQPEPNRPSELDLRLTEEGERMLSTFKELFSEKHASLQNSQRTVAEVQETLAEMIRQHQKSQLCKSTANGPDKNEPEVEAEQPLCSSQSQCKEEKNEPLSLPELTKRLTEANQRMAKFPESIKAWPFPDVLECCLVLLLIRSHFPGCLAQEMQQQAQELLQKYGNTKTYRRHCQTFCM
notes: Gemin5, human, residues 841-1508 with R1035A, K1061A, K1062A and R1090A; also called M4; source: E. coli BL21 (DE3), purified in the same way as wild-type G5C; not shown: His6, N-terminal, cleaved; copies: 10
With B2 the “stoichiometry N” value [2] was 10.

B3: G5C L1468D/L1469D double mutant (domain or fragment, human, UniProt Q8TEQ6 841-1508, looked up)
chain: KKRKARSLLPLSTSLDHRSKEELHQDCLVLATAKHSRELNEDVSADVEERFHLGLFTDRATLYRMIDIEGKGHLENGHPELFHQLMLWKGDLKGVLQTAAERGELTDNLVAMAPAAGYHVWLWAVEAFAKQLCFQDQYVKAASHLLSIHKVYEAVELLKSNHFYREAIAIAKARLRPEDPVLKDLYLSWGTVLERDGHYAVAAKCYLGATCAYDAAKVLAKKGDAASLRTAAELAAIVGEDELSASLALRCAQELLLANNWVGAQEALQLHESLQGQRLVFCLLELLSRHLEEKQLSEGKSSSSYHTWNTGTEGPFVERVTAVWKSIFSLDTPEQYQEAFQKLQNIKYPSATNNTPAKQLLLHICHDLTLAVLSQQMASWDEAVQALLRAVVRSYDSGSFTIMQEVYSAFLPDGCDHLRDKLGDHQSPATPAFKSLEAFFLYGRLYEFWWSLSRPCPNSSVWVRAGHRTLSVEPSQQLDTASTEETDPETSQPEPNRPSELDLRLTEEGERMLSTFKELFSEKHASLQNSQRTVAEVQETLAEMIRQHQKSQLCKSTANGPDKNEPEVEAEQPLCSSQSQCKEEKNEPLSLPELTKRLTEANQRMAKFPESIKAWPFPDVLECCLVLDDIRSHFPGCLAQEMQQQAQELLQKYGNTKTYRRHCQTFCM
notes: Gemin5, human, residues 841-1508 with L1468D and L1469D; also called M1; source: E. coli BL21 (DE3), purified in the same way as wild-type G5C; not shown: His6, N-terminal, cleaved
With B3 the “stoichiometry N” value [2] was 2 and 4.

B4: Gemin5 C-terminal fragment (Gemin5 841-1508), wild type (domain or fragment, human, UniProt Q8TEQ6 841-1508, looked up)
chain: KKRKARSLLPLSTSLDHRSKEELHQDCLVLATAKHSRELNEDVSADVEERFHLGLFTDRATLYRMIDIEGKGHLENGHPELFHQLMLWKGDLKGVLQTAAERGELTDNLVAMAPAAGYHVWLWAVEAFAKQLCFQDQYVKAASHLLSIHKVYEAVELLKSNHFYREAIAIAKARLRPEDPVLKDLYLSWGTVLERDGHYAVAAKCYLGATCAYDAAKVLAKKGDAASLRTAAELAAIVGEDELSASLALRCAQELLLANNWVGAQEALQLHESLQGQRLVFCLLELLSRHLEEKQLSEGKSSSSYHTWNTGTEGPFVERVTAVWKSIFSLDTPEQYQEAFQKLQNIKYPSATNNTPAKQLLLHICHDLTLAVLSQQMASWDEAVQALLRAVVRSYDSGSFTIMQEVYSAFLPDGCDHLRDKLGDHQSPATPAFKSLEAFFLYGRLYEFWWSLSRPCPNSSVWVRAGHRTLSVEPSQQLDTASTEETDPETSQPEPNRPSELDLRLTEEGERMLSTFKELFSEKHASLQNSQRTVAEVQETLAEMIRQHQKSQLCKSTANGPDKNEPEVEAEQPLCSSQSQCKEEKNEPLSLPELTKRLTEANQRMAKFPESIKAWPFPDVLECCLVLLLIRSHFPGCLAQEMQQQAQELLQKYGNTKTYRRHCQTFCM
notes: Gemin5, human, residues 841-1508 of the 1508-residue protein; Homodecamer (dimer of pentamers) by cryo-EM and static light scattering; also called G5C; G5C wild type; source: E. coli BL21 (DE3), purified (Ni-NTA, TEV cleavage, Superdex 200 gel filtration, mono Q); not shown: His6, N-terminal, cleaved; copies: 10
With B4 the “stoichiometry N” value [3] was 10.

B5: G5C L1381D/M1384D/I1385D triple mutant (domain or fragment, human, UniProt Q8TEQ6 841-1508, looked up)
chain: KKRKARSLLPLSTSLDHRSKEELHQDCLVLATAKHSRELNEDVSADVEERFHLGLFTDRATLYRMIDIEGKGHLENGHPELFHQLMLWKGDLKGVLQTAAERGELTDNLVAMAPAAGYHVWLWAVEAFAKQLCFQDQYVKAASHLLSIHKVYEAVELLKSNHFYREAIAIAKARLRPEDPVLKDLYLSWGTVLERDGHYAVAAKCYLGATCAYDAAKVLAKKGDAASLRTAAELAAIVGEDELSASLALRCAQELLLANNWVGAQEALQLHESLQGQRLVFCLLELLSRHLEEKQLSEGKSSSSYHTWNTGTEGPFVERVTAVWKSIFSLDTPEQYQEAFQKLQNIKYPSATNNTPAKQLLLHICHDLTLAVLSQQMASWDEAVQALLRAVVRSYDSGSFTIMQEVYSAFLPDGCDHLRDKLGDHQSPATPAFKSLEAFFLYGRLYEFWWSLSRPCPNSSVWVRAGHRTLSVEPSQQLDTASTEETDPETSQPEPNRPSELDLRLTEEGERMLSTFKELFSEKHASLQNSQRTVAEVQETDAEDDRQHQKSQLCKSTANGPDKNEPEVEAEQPLCSSQSQCKEEKNEPLSLPELTKRLTEANQRMAKFPESIKAWPFPDVLECCLVLLLIRSHFPGCLAQEMQQQAQELLQKYGNTKTYRRHCQTFCM
notes: Gemin5, human, residues 841-1508 with L1381D, M1384D and I1385D; also called M2; source: E. coli BL21 (DE3), purified in the same way as wild-type G5C; not shown: His6, N-terminal, cleaved
B5 was tested, and the “stoichiometry N” value [2] was 2 and 4.

B6: G5C L1469H single mutant (domain or fragment, human, UniProt Q8TEQ6 841-1508, looked up)
chain: KKRKARSLLPLSTSLDHRSKEELHQDCLVLATAKHSRELNEDVSADVEERFHLGLFTDRATLYRMIDIEGKGHLENGHPELFHQLMLWKGDLKGVLQTAAERGELTDNLVAMAPAAGYHVWLWAVEAFAKQLCFQDQYVKAASHLLSIHKVYEAVELLKSNHFYREAIAIAKARLRPEDPVLKDLYLSWGTVLERDGHYAVAAKCYLGATCAYDAAKVLAKKGDAASLRTAAELAAIVGEDELSASLALRCAQELLLANNWVGAQEALQLHESLQGQRLVFCLLELLSRHLEEKQLSEGKSSSSYHTWNTGTEGPFVERVTAVWKSIFSLDTPEQYQEAFQKLQNIKYPSATNNTPAKQLLLHICHDLTLAVLSQQMASWDEAVQALLRAVVRSYDSGSFTIMQEVYSAFLPDGCDHLRDKLGDHQSPATPAFKSLEAFFLYGRLYEFWWSLSRPCPNSSVWVRAGHRTLSVEPSQQLDTASTEETDPETSQPEPNRPSELDLRLTEEGERMLSTFKELFSEKHASLQNSQRTVAEVQETLAEMIRQHQKSQLCKSTANGPDKNEPEVEAEQPLCSSQSQCKEEKNEPLSLPELTKRLTEANQRMAKFPESIKAWPFPDVLECCLVLLHIRSHFPGCLAQEMQQQAQELLQKYGNTKTYRRHCQTFCM
notes: Gemin5, human, residues 841-1508 with L1469H; also called M3; source: E. coli BL21 (DE3), purified in the same way as wild-type G5C; not shown: His6, N-terminal, cleaved; copies: 10
With B6 the “stoichiometry N” value [2] was 10.
